This note sets out measurements from patent publication US20240101716A1.

The labels stand for the following.
B1: HSP210-03-hz51 (antibody, V domains shown)
VH: QVQLVQSGAEVKKPGSSVKVSCKASGYTFTSNYIHWVRQAPGQGLEWMGWIYPGDADTNYNQKFNGRVTLTADKSTSTAYMELSSLRSEDTAVYYCAINYGGIWFAYWGQGTLVTVSS
VL: DIQMTQSPSSLSASVGDRVTITCQASQDIGNKLIWYQQKPGKAPKLLIYYVTNLPGGVPSRFSGSGSGTDFTLTISSLQPEDFATYYCLQYKQNPLTFGQGTKLEIK
B2: HSP210-02-hz52 (antibody, V domains shown)
VH: QVQLVQSGAEVKKPGASVKVSCKASGFNFEDTYMHWVRQAPGQGLEWMGRIDPADADTKYNPKFQDRVTITVDTSTNTAYMELSSLRSEDTAVYYCVRGNYVNWGQGTTVTVSS
VL: EIVLTQSPGTLSLSPGERATLSCRASSSVSSSYLYWYQQKPGQAPRLLIYSTSNLASGIPDRFSGSGSGTDYTLTISRLEPEDAAVYFCHQWYSYPRTFGGGTKVEIK
B3: HSP210-01-hz22 (antibody, V domains shown)
VH: QVQLQESGPGLVKPSETLSLTCTFSGFSLNTYDIGMGWIRQPPGKGLEWIGHIWWNDREYYNSALQSRVTISKDTSKTQVSLKLSSVTAADTAVYYCVRIDYFGSGQAWFTYWGQGTLVTVSS
VL: EIVLTQSPGTLSLSPGERATLSCSSSSTISSTYLHWYQQKPGQAPRLLISGTSNLASGIPDRFSGSGSGTDYTLTISRLEPEDVAVYYCQQGSRIPFTFGQGTKLEIK
B4: HSP210-01-hz52 (antibody, V domains shown)
VH: B3 VH with G51A, N62S
VL: B3 VL
B5: HSP210-01-hz62 (antibody, V domains shown)
VH: B3 VH with G51A, S63P
VL: B3 VL
B6: HSP210-01-hz61 (antibody, V domains shown)
VH: B3 VH with G51A, S63P
VL: B3 VL with S50Y, Y72F, V84F
B7: HSP210-01-hz32 (antibody, V domains shown)
VH: B3 VH with G51A
VL: B3 VL
B8: HSP210-02-Chi (antibody, V domains shown)
VH: EVQLQQSGAELVKPGASVKLSCTASGFNFEDTYMHWVKQRPDQGLEWIGRIDPADGDTKYNPKFQDKATITVDTSSNTAYLQLSSLTSEDTAVYYCVRGNYVNWGQGTTLTVSS
VL: QIVLIQSPAIMSASPGERVTLTCRASSSVSSSYLYWYQQKPGSSPKLWIYSTSNLASGVPARFSGSGSGTSYSLTISSMEAEDAASYFCHQWYSYPRTFGGGTKLEIK
B9: HSP210-03-hz52 (antibody, V domains shown)
VH: B1 VH
VL: B1 VL with Y36F, Y49H, G66R, T69S, F71Y
B10: HSP210-03-hz32 (antibody, V domains shown)
VH: B1 VH with A56G
VL: B1 VL with Y36F, Y49H, G66R, T69S, F71Y
B11: HSP210-03-hz42 (antibody, V domains shown)
VH: B1 VH with D55E, A56G
VL: B1 VL with Y36F, Y49H, G66R, T69S, F71Y
B12: HSP210-03-hz22 (antibody, V domains shown)
VH: B1 VH with A56G, L70I
VL: B1 VL with Y36F, Y49H, G66R, T69S, F71Y
B13: HSP210-02-hz42 (antibody, V domains shown)
VH: B2 VH with D55E, A56G
VL: B2 VL
B14: HSP210-02-hz32 (antibody, V domains shown)
VH: B2 VH with A56G
VL: B2 VL
B15: HSP210-02-hz22 (antibody, V domains shown)
VH: B2 VH with A56G, I70M
VL: B2 VL
B16: HSP210-03-Chi (antibody, V domains shown)
VH: QVQLQQSGTELVKPGSSVKISCKASGYTFTSNYIHWIRQQPGNGLEWIGWIYPGDGDTNYNQKFNGKATLTADKSSSTAYMQLSSLTSEDYAVYFCAINYGGIWFAYWGQGTLVTVSS
VL: DIQMTQSPSSMSASLGDRVTITCQASQDIGNKLIWFQQKPGKSPRLMIHYVTNLPGGVPLRFSGSRSGSDYSLTISSLESEDMADYYCLQYKQNPLTFGSGTKLEIK
B17: 248G3F6 (antibody, V domains shown)
VH: B8 VH
VL: B8 VL
B18: 300A6A6 (antibody, V domains shown)
VH: B16 VH
VL: B16 VL

Numbering of substitutions follows the chain as printed.

The first test concerns the target SIRP-α expressed on cells (UniProt P78324). Kind of test: FACS binding test on SIRP-a cell line, Geom.Mean; unit from the axis log(nm). A general note: Flow cytometry measures light scatter and fluorescence of single cells or particles in a stream.
The EC50 is the concentration that produces a half-maximal response. B1 had an EC50 of 0.417 nM.
Still for that read-out and setting: next, B2: 0.54 nM.

In a further test the target is SIRPα-His protein (UniProt P78324). Kind of test: competition ELISA, SIRPα-His binding to coated CD47-Fc. (ELISA stands for enzyme-linked immunosorbent assay.)
One may read the IC50 as the point on the concentration scale where inhibition reaches its midpoint. B3 yielded an IC50 of 0.21 nM.
Still for that read-out and setting: next, B4: 0.23 nM.
B5 gave an IC50 of 0.16 nM.
Molecule B6 showed an IC50 of 0.21 nM.
Same read-out and setting: the same measure for B7: 0.16 nM; for B8: 0.14 nM; for B9: 0.13 nM.
The same measure, in the same setting: next, B10: 0.145 nM; B11: 0.13 nM.
Same read-out and setting: the same measure for B12: 0.16 nM; for B2: 0.11 nM.
The molecule B13 gave an IC50 of 0.12 nM.
Take B14: the IC50 is 0.11 nM.
The same measure, in the same setting: next, B15: 0.092 nM.
In turn, B16 gave an IC50 of 0.14 nM.

A further test has the same target. Briefly: competition ELISA: SIRPα-His binding to coated CD47-Fc in the presence of the antibody, OD450.
As for B17, the 50% inhibitory concentration (IC50) came to 0.356 µg/mL.
The same measure, in the same setting: next, B18: 0.383 µg/mL.

The next test deals with recombinant human SIRPα variant 1 protein (human) (UniProt P78324). Briefly: SPR Biacore 8K, antibody captured, antigen analyte. In general terms: In SPR one partner is held on a chip, and binding of the other changes the refractive index at the surface.
Sequence of recombinant human SIRPα variant 1 protein (human) (P78324 31-370, change not shown): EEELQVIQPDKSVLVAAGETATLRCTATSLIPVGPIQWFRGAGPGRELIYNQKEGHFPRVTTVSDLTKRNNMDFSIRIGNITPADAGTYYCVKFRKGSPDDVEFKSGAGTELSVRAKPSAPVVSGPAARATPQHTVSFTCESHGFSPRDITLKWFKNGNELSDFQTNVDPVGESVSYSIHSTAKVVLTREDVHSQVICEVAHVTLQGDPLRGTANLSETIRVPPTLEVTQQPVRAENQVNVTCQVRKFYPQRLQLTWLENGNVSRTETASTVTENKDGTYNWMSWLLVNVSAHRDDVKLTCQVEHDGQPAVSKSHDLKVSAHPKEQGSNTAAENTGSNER
The term Kd denotes the free concentration of one partner at which half of the binding sites on the other are occupied at equilibrium, for simple one-to-one binding. The koff is the rate constant with which the complex falls apart. One may read the kon as a measure of how fast the partners come together. As to B17, the Kd was 2 nM, the koff came to 0.000374 s⁻¹ and the kon was 187000 M⁻¹ s⁻¹.
On the same counts, the results for B1 are 0.999 nM, 0.000804 s⁻¹ and 805000 M⁻¹ s⁻¹.
For B2, the Kd was determined as 0.423 nM, the koff stood at 0.000298 s⁻¹ and the kon is 704000 M⁻¹ s⁻¹.
The like results for B18 were, in that order, 1.13 nM, 0.000148 s⁻¹ and 131000 M⁻¹ s⁻¹.

For the next test the target is unchanged. Kind of test: ELISA on coated recombinant human SIRPα v1, OD450.
For the molecule B17, the EC50 worked out at 0.0182 µg/mL.
Regarding B18, the EC50 was found to be 0.0121 µg/mL.

The target in another test is SIRPα (blocking assay of Example 11) (UniProt P78324). Kind of test: blocking of the CD47/SIRPα interaction, ratio 665 nm/615 nm against antibody concentration.
In the case of B1, the IC50 (read off the curve) was found to be 0.1 nM.
With B2, the IC50 (read off the curve) came to 0.1 nM.
